In general, Km refers to the concentration of substrate that gives half-maximal velocity. Usually Vmax stands for the rate approached at saturating substrate.

One data set deals with T1, coAHASL1 (Caldicellulosiruptor owensensis, UniProt E4Q3I4).
T1 construct: gene Calow_0356; catalytic subunit alone, EC 2.2.1.6
T1 sequence (E4Q3I4 1-536): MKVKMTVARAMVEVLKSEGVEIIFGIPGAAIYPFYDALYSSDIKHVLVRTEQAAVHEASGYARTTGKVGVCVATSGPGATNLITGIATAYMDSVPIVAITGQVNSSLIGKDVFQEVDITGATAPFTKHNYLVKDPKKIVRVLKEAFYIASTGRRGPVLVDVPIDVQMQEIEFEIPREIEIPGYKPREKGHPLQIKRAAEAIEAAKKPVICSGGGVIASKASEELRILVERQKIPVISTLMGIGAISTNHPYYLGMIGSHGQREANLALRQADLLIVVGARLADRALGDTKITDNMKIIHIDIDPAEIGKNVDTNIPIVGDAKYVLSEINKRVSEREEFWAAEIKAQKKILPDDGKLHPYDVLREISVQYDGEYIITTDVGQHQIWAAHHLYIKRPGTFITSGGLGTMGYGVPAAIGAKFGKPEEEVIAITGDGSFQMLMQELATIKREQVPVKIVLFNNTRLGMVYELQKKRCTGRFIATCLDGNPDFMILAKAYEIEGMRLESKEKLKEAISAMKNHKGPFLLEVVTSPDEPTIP
Kind of data set: colorimetric acetoin assay; activity with […] FAD. The class given is biochemical. Conditions: pyruvate, ThDP, Mg2+; 65 °C, Tris pH 6.5.

In the next data set the target is T2, coAHASL2 (Caldicellulosiruptor owensensis, UniProt E4Q4G3).
T2 construct: gene Calow_0543; catalytic subunit alone, EC 2.2.1.6
T2 sequence (E4Q4G3 1-552): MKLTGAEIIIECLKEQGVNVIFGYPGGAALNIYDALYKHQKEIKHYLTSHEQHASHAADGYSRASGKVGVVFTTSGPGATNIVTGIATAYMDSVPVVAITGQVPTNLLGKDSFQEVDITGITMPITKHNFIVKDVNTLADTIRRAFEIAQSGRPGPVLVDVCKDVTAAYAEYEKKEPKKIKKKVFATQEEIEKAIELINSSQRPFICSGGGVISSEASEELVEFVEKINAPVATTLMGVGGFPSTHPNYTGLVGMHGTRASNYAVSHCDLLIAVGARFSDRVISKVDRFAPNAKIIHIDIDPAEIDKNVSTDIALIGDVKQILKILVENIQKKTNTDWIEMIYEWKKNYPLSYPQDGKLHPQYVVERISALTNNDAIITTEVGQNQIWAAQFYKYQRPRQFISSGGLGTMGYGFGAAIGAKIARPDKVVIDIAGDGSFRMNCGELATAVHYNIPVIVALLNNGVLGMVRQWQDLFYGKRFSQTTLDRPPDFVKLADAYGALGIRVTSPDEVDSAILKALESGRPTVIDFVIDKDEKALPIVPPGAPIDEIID
Kind of data set: colorimetric acetoin assay; activity with […] FAD. The format is biochemical. Conditions: pyruvate, ThDP, Mg2+; 65 °C, Tris pH 6.5.

Substrate in the data set “purified protein”: CC(=O)C(=O)O
Kind of data set: purified protein. The class given is biochemical, Caldicellulosiruptor owensensis. The conditions noted are these: ThDP, FAD, Mg2+, catalytic subunit alone.

Where [1] appears, read: 70 °C, pH 6.5 (citrate-phosphate).

On to `Cc1cc2nc3c(=O)[nH]c(=O)nc-3n(C[C@H](O)[C@H](O)[C@H](O)COP(=O)(O)OP(=O)(O)OC[C@H]3O[C@@H](n4cnc5c(N)ncnc54)[C@H](O)[C@@H]3O)c2cc1C` [FAD], for which the activity enhancement entry at coAHASL1 is “concentration-dependent enhancements of both coAHASL1 and coAHASL2 were observed upon the addition of FAD”; on coAHASL2 it was “concentration-dependent enhancements of both coAHASL1 and coAHASL2 were observed upon the addition of FAD”.

B1: coAHASL1 (Caldicellulosiruptor owensensis OL) (protein)
chain: MKVKMTVARAMVEVLKSEGVEIIFGIPGAAIYPFYDALYSSDIKHVLVRTEQAAVHEASGYARTTGKVGVCVATSGPGATNLITGIATAYMDSVPIVAITGQVNSSLIGKDVFQEVDITGATAPFTKHNYLVKDPKKIVRVLKEAFYIASTGRRGPVLVDVPIDVQMQEIEFEIPREIEIPGYKPREKGHPLQIKRAAEAIEAAKKPVICSGGGVIASKASEELRILVERQKIPVISTLMGIGAISTNHPYYLGMIGSHGQREANLALRQADLLIVVGARLADRALGDTKITDNMKIIHIDIDPAEIGKNVDTNIPIVGDAKYVLSEINKRVSEREEFWAAEIKAQKKILPDDGKLHPYDVLREISVQYDGEYIITTDVGQHQIWAAHHLYIKRPGTFITSGGLGTMGYGVPAAIGAKFGKPEEEVIAITGDGSFQMLMQELATIKREQVPVKIVLFNNTRLGMVYELQKKRCTGRFIATCLDGNPDFMILAKAYEIEGMRLESKEKLKEAISAMKNHKGPFLLEVVTSPDEPTIP
notes: catalytic subunit alone, EC 2.2.1.6
In the case of B1, in “purified protein” (65 °C, pH 6.5 (Tris)), the Km was 71.83 ± 4.63 mM and the Vmax was 3.7 µmol/min/mg.

B2: coAHASL2 (Caldicellulosiruptor owensensis OL) (protein)
chain: MKLTGAEIIIECLKEQGVNVIFGYPGGAALNIYDALYKHQKEIKHYLTSHEQHASHAADGYSRASGKVGVVFTTSGPGATNIVTGIATAYMDSVPVVAITGQVPTNLLGKDSFQEVDITGITMPITKHNFIVKDVNTLADTIRRAFEIAQSGRPGPVLVDVCKDVTAAYAEYEKKEPKKIKKKVFATQEEIEKAIELINSSQRPFICSGGGVISSEASEELVEFVEKINAPVATTLMGVGGFPSTHPNYTGLVGMHGTRASNYAVSHCDLLIAVGARFSDRVISKVDRFAPNAKIIHIDIDPAEIDKNVSTDIALIGDVKQILKILVENIQKKTNTDWIEMIYEWKKNYPLSYPQDGKLHPQYVVERISALTNNDAIITTEVGQNQIWAAQFYKYQRPRQFISSGGLGTMGYGFGAAIGAKIARPDKVVIDIAGDGSFRMNCGELATAVHYNIPVIVALLNNGVLGMVRQWQDLFYGKRFSQTTLDRPPDFVKLADAYGALGIRVTSPDEVDSAILKALESGRPTVIDFVIDKDEKALPIVPPGAPIDEIID
notes: as for B1
In the case of B2, in “purified protein” (setting [1]), the Michaelis constant (Km) came to 53.78 ± 2.68 mM and the maximal velocity (Vmax) was 0.7 µmol/min/mg.

Values taken from publication PMC5489476, “A thermophilic cell-free cascade enzymatic reaction for acetoin synthesis from pyruvate” (Scientific Reports, 2017).
